These results are taken from patent publication US20070190045A1, “Anti-CD3 and antigen-specific immunotherapy to treat autoimmunity” (priority 2004, published 2007).

Data set [1] relates to PBMC. The experiment in a line: Induction of regulatory T cells in vitro with OKT3 then IL-10/IL-2; inhibition of PHA-stimulated PBMC proliferation. Type of data set: cell-based, human. The source says: See text in Example 4 for details of the experimental procedure. […] In the left panel of FIG. 10A, responder cells alone were stimulated with PHA and the percentage of proliferating cells was 67%. In the right panel of FIG. 10A, responder cells were stimulated with PHA in the presence of cells treated with anti-CD3 mAb/IL-10/IL-2, and the percentage of proliferating cells was 43%. The number of proliferating responder cells (i.e. diluted CFSE (carboxy-fluorescein diacetate, succinimidyl ester)) in the presence of the added cells is shown. […] In the left panel of FIG. 10B, responder cells alone were stimulated with PHA and the percentage of proliferating cells was 50%. In the right panel of FIG. 10B, responder cells were stimulated with PHA in the presence of IL-10/IL-2 cultured cells, and the percentage of proliferating cells was 54%.
3. Treatment with anti-CD3 mAb induces regulatory T cells in vitro: In order to obtain sufficient numbers of cells for studies of functional properties, anti-CD3 mAb has been utilized to expand regulatory T cells in vitro. PBMC were cultured for 10 days with OKT3 mAb and then CD4+ cells were isolated by sorting. They were then cultured for 19 days with IL-10 and IL-2. These cells were then added to cultures of PBMC from the same individual, stimulated with PHA (phytohemagglutinin). […] The majority (94%) of the CD4+ cells that inhibit PBMC proliferation are CCR4+, 46% are CD62L+, and 93% are CD45RO+. About 5% of the cells are GITR+.

The test system of data set [2] is patients with new onset Type 1 diabetes. The experiment in a line: Phase I/II trial of hOKT3γ1(Ala-Ala) in new onset Type 1 diabetes: C-peptide response to MMTT. It counts as in vivo, human. The conditions noted are these: patients with new onset T1D.
For data set [3] the test system is unchanged. The experiment in a line: Side effects of hOKT3γ1(Ala-Ala) in the Phase I/II trial (WHO Criteria). Type of data set: in vivo, human. From the text: The dosing regimen was modified from a 14-day to a 12-day course after treatment of the first 12 patients.
Data set [4] relates to CD4+IL-10+ T cells. The experiment in a line: Induction of CD4+IL-10+ cells in vivo in treated patients (intracellular cytokine staining). On the set-up: species or system human. From the text:
Cells were isolated from patients after treatment with the mAb and stained for intracytoplasmic IL-10 and IFN-γ without further activation ex vivo. IL-10+CD4+ cells were identified in 5/6 patients within 1 week after the last dose of mAb.
2. […] PBMC were harvested and frozen from a patient treated with hOKT3γ1(Ala-Ala) at the conclusion of mAb treatment. These cells, as well as those harvested before mAb treatment were thawed and stained for intracellular cytokines, IL-10 and IFN-γ. Markers were placed around surface molecules CD4 and CD3. Cells harvested from patients after anti-CD3 mAb treatment were producing IL-10 in vivo. […] These induced cells were IFN-γ negative, predominantly CD45RO+, and generally CCR4+. Thirteen percent of these cells produced TGF-β by surface staining.

Data set [5] relates to PBMC. The experiment in a line: Inhibitory properties of cells grown in hOKT3γ1(Ala-Ala) and IL-10/IL-2 on PHA-stimulated PBMC. It counts as cell-based, human. As to conditions: 10 days with mAb, sorted, 2 weeks IL-10 and IL-2. The procedure: Other cells were cultured in IL-10/IL-2 (FIG. 11B), sorted, and then cultured for an addition 19 days in IL-10/IL-2. Both groups of cells were added to fresh PBMC. Uptake of 3H-thymidine was measured 72 hrs after the addition of PHA.
These cells were then cultured for an additional 2 weeks in IL-10 and IL-2 and then added to PBMC from the same donor and stimulated with PHA.

Data set [6] deals with T cells. The conditions noted are these: cited from earlier work.
The subject of data set [7] is NOD mice. The conditions noted are these: cited from earlier work.
The mark [8] stands for this setting: after OKT3 10 days, IL-10/IL-2 19 days.
Setting [9] is: Phase I/II trial, 12 or 14-day regimen.

Like-named read-outs stand apart in the source and are kept apart here.

Regarding “OKT3 mAb: murine anti-CD3 mAb; in FIG. 10 cells cultured with it, then with IL-10 and IL-2”, in data set [1] (PHA stimulation in presence of added cultured cells, responder cells alone 67% (FIG. 10A) or 50% (FIG. 10B)), the “percentage of proliferating responder cells” value was 43%. Moreover, in data set [1] (setting [8]), the “inhibitory CD4+ cells that are CCR4+” value was 94%, the “inhibitory CD4+ cells that are CD45RO+” value came out at 93%, the “inhibitory CD4+ cells that are CD62L+” value is 46% and the “inhibitory CD4+ cells that are GITR+” value is listed as “About 5%”. Further, the “effect of added cultured cells on proliferation of PHA-stimulated CD4+ T cells/PBMC” value in data set [1] (cells added at ratio 1:5) is given as “inhibited proliferation”.

For “hOKT3γ1(Ala-Ala): humanized anti-CD3 mAb with the same CDR region as OKT3 and a mutation in the Fc portion to reduce FcR binding”, the “duration of functional immunologic tolerance after treatment” value in data set [2] is recorded as “at least 1 year”. Besides, in data set [3] (setting [9]), the “Arthralgia, Mild” value is listed as 8%; the “Arthralgia, Moderate” value was determined as 0; the “Arthralgia, Severe” value worked out at 0; the “Diarrhea, Mild” value worked out at 0. Besides, in data set [3] (setting [9]), the “Diarrhea, Moderate” value is recorded as 0; the “Diarrhea, Severe” value came to 0; the “Dyspnea, Mild” value was determined as 8%; the “Dyspnea, Moderate” value amounted to 0. In data set [3] (setting [9]), the “Dyspnea, Severe” value was determined as 0; the “Fever, Mild” value is reported as 17%; the “Fever, Moderate” value is recorded as 58%; the “Fever, Severe” value was determined as 0. For the same substance, in data set [3] (setting [9]), the “Headache, Mild” value is on record as 33%; the “Headache, Moderate” value is 0; the “Headache, Severe” value is given as 0; the “Hypotension, Mild” value worked out at 0. In data set [3] (setting [9]), the “Hypotension, Moderate” value is listed as 0; the “Hypotension, Severe” value is given as 0; the “Myalgia, Mild” value is listed as 17%; the “Myalgia, Moderate” value turned out to be 0. For the same substance, in data set [3] (setting [9]), the “Myalgia, Severe” value is 0; the “Nausea, Mild” value was 8%; the “Nausea, Moderate” value stood at 0; the “Nausea, Severe” value is 0. Also, in data set [3] (setting [9]), the “Rash, Mild” value turned out to be 58%; the “Rash, Moderate” value came out at 25%; the “Rash, Severe” value amounted to 0; the “Vomiting, Mild” value was 8%. For the same substance, in data set [3] (setting [9]), the “Vomiting, Moderate” value is 0 and the “Vomiting, Severe” value was 0. The tolerability entry in data set [3] (data from patients with T1DM) is “well tolerated”. The “induced CD4+IL-10+ cells producing TGF-β by surface staining” value in data set [4] (PBMC at conclusion of mAb treatment) is reported as “Thirteen”. Also, in data set [4] (within 1 week after the last dose of mAb), the “patients in whom IL-10+CD4+ cells were identified” value is listed as 5/6. The “effect of CCR4+ cells from cultures on proliferation of PHA-stimulated PBMC” value in data set [5] was “inhibited proliferation”. Besides, the “cytokine production after activation signal to T cells” value in data set [6] (compared with OKT3, Herold et al. 2003) was “relatively greater production of IL-10 instead of IFN-γ”. In data set [6] (in vitro or in vivo, Xu et al. 2000), the “T cell activation compared with OKT3” value is reported as “does not cause the same T cell activation”.

For “rhGAD65: human GAD 65 protein, obtained from Diamyd”, the anaphylaxis entry in data set [7] (reports in NOD mice (Liu et al. 2002; Pedotti et al. 2003)) is reported as “fatal anaphylactic reactions”.

Regarding “insulin B9-23 peptide: peptide comprising amino acids 9-23 of the insulin B chain (SHLVEALYLVCGERG)”, the anaphylaxis entry in data set [7] (mouse, in vivo) is reported as “anaphylaxis”; in data set [7] (reports in NOD mice (Liu et al. 2002; Pedotti et al. 2003), listed as insulin peptide), “fatal anaphylactic reactions”.
